# Assay results published in patent US20040180341A1, “Transcriptional regulation of kinase inhibitors” (Brown University, priority 2003, published 2004).
# Columns and labels:
# [1] = system: AP-1 dependent reporter gene; assay: AP-1 dependent reporter gene (TRE-lacZ), microinjection into Rat-1 cells; type: cell-based; details: for suppression of AP-1 reporter induction caused by anti-RKIP antibodies: MEK inhibitors given 1 h before microinjection
# Excerpt: In one embodiment, the RKIP protein inhibiting agent can be an antibody specifically recognizing an RKIP motif. For example, to examine the relevance of the interaction between RKIP and the kinases of the Raf/MEK/ERK module in mammalian cells, endogenous RKIP \was inhibited by antibody microinjection. Since the AP-1 transcription factor is a major target of Raf signaling (Kortenjann et al. Mol. Cell. Biol. 14:4815-4824, 1994;Rapp et al., Oncogene 9:3493-3498, 1994; Kolch et al. Oncogene 8:361-370, 1993), the influence of RKIP on AP-1 activity was tested as shown in FIG. 3.
# Microinjections of antibodies and reporter genes were performed as described previously (Lavinsky et al. Proc. Natl. Acad. Sci. USA 95:2920-2925, 1998; Rose et al. J. Cell. Biol. 119:1405-1411, 1992). Briefly, quiescent Rat-1 cells were microinjected with the reporter plasmids and antibodies and either left unstimulated or treated with 200 ng/ml TPA or 20 μg/ml forskolin. The RKIP antiserum was purified over a GST-RKIP affinity column. NIH3T3 cells were stained with an activation specific anti-phospho-ERK monoclonal antibody (Sigma). ERK phosphorylation was quantified by densitometry. For this purpose areas with microinjected cells were randomly photographed, and the staining intensity of whole individual cells was measured using the PcBAS software.
# (§1) In one embodiment, the present invention provides a method of identifying a cell growth modulating agent by analyzing the effect of a candidate agent on the expression of an RKIP responsive reporter. For example, to show the effect of the RKIP on the activity of the AP-1 mediated transcription, NIH 3T3 cells were co-transfected with a 3xTRE-CAT reporter and the above described expression plasmids. NIH 3T3 and 208F cells were transfected in 6-well plates with 1 μg of pCMV5-BXB and 3 μg of p53/RKIP using Superfect (Qiagen).
# AP-1 luciferase assays and microinjection experiments with affinity-purified RKIP antiserum and TRE-lacZ reporter plasmids were carried out as previously described (Yeung et al. Nature, 401:173-177, 1999). […] This induction was due to the activation of MEK, since it could be suppressed by two structurally different MEK inhibitors, U0126 and PD98059 (FIG. 7(a)). […] These antibodies are therefore useful tools for investigating the molecular mechanism by which RKIP works. The RKIP antiserum interfered with the binding of Raf-1 and MEK to RKIP (FIG. 7(b)). […] Furthermore, the RKIP antibodies reversed the inhibitory effect of RKIP on MEK phosphorylation by Raf-1 (FIG. 7(c)).
# AP-1 activity = assay: 3xTRE-CAT reporter in NIH 3T3 cells co-transfected with RKIP; type: cell-based; details: RKIP transfection
# Method: as §1
# MEK [2] = assay: In vitro kinase assay: MEK; type: biochemical
# Method: Kinase assays were done as described in Hafner et al. (Mol. Cell. Biol. 14:6696-6703, 1994). Activated Raf-1 was generated by co-expressing GST-Raf-1 with v-Ras and Lck in Sf-9 cells and collected on glutathione Sepharose beads. Subsequent thrombin cleavage released Raf-1 which was fully active and >90% pure. To activate MEK and ERK in vitro, 20 ng activated Raf-1 was incubated with 40 ng purified His/MEK-1 and 250 ng GST-ERK-2 in Raf kinase buffer containing 20 μM ATP for 20 minutes at 30° C. To measure kinase activities at individual steps the respective downstream components were omitted. The activation reactions were diluted into 50 μl Raf kinase buffer containing 20 μm ATP to yield equimolar concentrations of the kinases to be assayed and incubated with increasing amounts of purified RKIP on ice for 10 minutes. Similar assays may be performed with smaller polypeptides comprising RKIP motifs, or even with a peptide consisting essentially of an RKIP motif as defined herein. Then, 2 μCi [^32P]-γ-ATP and recombinant substrates were added and incubated for 20 minutes at 30° C. As substrates 200 ng kinase negative His/MEK-1 was used for Raf, 1 μg kinase negative GST-ERK for MEK, and 1 μg GST-ELK (New England Biolabs) for ERK. In some assays 1 μg GST-MEK was used as Raf-1 substrate with identical results. […]
# ERK [3] = assay: HA-ERK immunoprecipitate kinase activity in transfected COS-1 cells; type: cell-based
# Method: (§2) The COS-1 cells were transfected as described (Catling et al., 1995, Mol. Cell. Biol. 15: 5214-5225) with 2 μg of HA-ERK-2, BXB, MEK and MEK-DD plasmids and the indicated amounts of p353/RKIP. The total amount of transfected DNA was kept constant using the appropriate vectors as carrier DNA. […] In addition, 0.1 μg of an AP1-Luc reporter was transfected for reporter gene assays. 48 hours post-transfection cells were serum starved for 20 hours and either left untreated or treated with TPA (200 ng/ml) or serum for 5 hours before being collected. Cells were lysed and cell extracts were used for immunoblotting or assayed for luciferase activity. For the GFP sorting experiments 5×10^6 NIH 3T3 cells were electroporated with either 100 μg pCMVori, 50 μg pCMV-GFP, and 50 μg pHACT or 100 μg pASC143, 50 μg CMV-GFP, and 50 μg CMV-HAC. Two days later cells were trypsinized and sorted for green fluorescent cells by preparative FACS. 100,000 GFP-positive cells were lysed in SDS-gel sample buffer and immunoblotted.
# COS-1 cells were transfected with the indicated expression plasmids plus increasing amounts of RKIP. HA-ERK-2 was immunoprecipitated and assayed with MBP.
# COS-1 cells were transfected with the indicated expression vectors and the kinase activity of HA-ERK immunoprecipitates was examined.
# ERK [4] = molecular target: T1, ERK (Homo sapiens, UniProt P28482); assay: In vitro kinase assay: ERK; type: biochemical; details: purified RKIP, recombinant proteins in vitro
# T1 construct: GST; made in house
# T1 sequence (P28482 whole entry): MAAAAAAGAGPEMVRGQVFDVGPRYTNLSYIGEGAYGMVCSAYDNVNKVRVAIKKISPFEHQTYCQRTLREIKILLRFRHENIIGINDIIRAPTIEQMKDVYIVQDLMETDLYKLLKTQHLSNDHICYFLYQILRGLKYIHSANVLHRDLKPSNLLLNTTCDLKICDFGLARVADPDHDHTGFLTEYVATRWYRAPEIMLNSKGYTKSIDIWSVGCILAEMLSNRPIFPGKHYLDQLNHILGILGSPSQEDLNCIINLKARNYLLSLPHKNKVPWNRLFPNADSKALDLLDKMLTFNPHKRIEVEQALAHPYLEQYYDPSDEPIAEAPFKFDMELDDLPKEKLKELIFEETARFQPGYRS
# Method: (§3) Kinase assays were done as described in Hafner et al. (Mol. Cell. Biol. 14:6696-6703, 1994). Activated Raf-1 was generated by co-expressing GST-Raf-1 with v-Ras and Lck in Sf-9 cells and collected on glutathione Sepharose beads. Subsequent thrombin cleavage released Raf-1 which was fully active and >90% pure. To activate MEK and ERK in vitro, 20 ng activated Raf-1 was incubated with 40 ng purified His/MEK-1 and 250 ng GST-ERK-2 in Raf kinase buffer containing 20 μM ATP for 20 minutes at 30° C. To measure kinase activities at individual steps the respective downstream components were omitted. The activation reactions were diluted into 50 μl Raf kinase buffer containing 20 μm ATP to yield equimolar concentrations of the kinases to be assayed and incubated with increasing amounts of purified RKIP on ice for 10 minutes. Similar assays may be performed with smaller polypeptides comprising RKIP motifs, or even with a peptide consisting essentially of an RKIP motif as defined herein. Then, 2 μCi [^32P]-γ-ATP and recombinant substrates were added and incubated for 20 minutes at 30° C. As substrates 200 ng kinase negative His/MEK-1 was used for Raf, 1 μg kinase negative GST-ERK for MEK, and 1 μg GST-ELK (New England Biolabs) for ERK. In some assays 1 μg GST-MEK was used as Raf-1 substrate with identical results.
# MEKK-1 = assay: MEK phosphorylation by immunoprecipitated MEKK-1; type: biochemical; details: MEKK-1 immunoprecipitated from COS-1 cells, knMEK substrate
# Method: “BSA” indicates use of 15 μM bovine serum albumin; “Co.” substrate alone; and “kn”, kinase negative mutant. […] HA-MEK-DD or HA-MEK-1 expressed in COS-1 cells were immunoprecipitated with anti-HA antibodies from serum starved cells or TPA treated cells, respectively, and assayed for kinase activity. […] MEKK-1 was immunoprecipitated from transiently transfected COS-1 cells and used to phosphorylate knMEK.
# NIH 3T3 and 208F cells = assay: Transformation assays (morphological transformation, focus formation, soft agar); type: cell-based
# Excerpt: Additionally, NIH 3T3 cells were transfected with BXB, alone or together with RKIP (linked to neomycin/G418 resistance encoding gene). The G418-resistant colonies were counted and scored for morphological transformation. Aliquots of the same transfection were allowed to grow to confluency without drug and were scored for focus formation. A BXB-transformed cell line was infected with LXSH-RKIP retrovirus or LXSH (hygromycin resistant) and seeded in soft agar in the presence of hygromycin. […] The data are expressed as the reduction in focus formation relative to focus formation upon co-transfection with empty vector (set to 100%).
# MEK [5] = molecular target: T2, MEK (Homo sapiens, UniProt Q02750); assay: HA-MEK immunoprecipitate kinase activity in transfected COS-1 cells; type: cell-based; details: co-transfection of RKIP, dose dependent
# T2 construct: expressed in transfected cells; host or cells: COS-1
# Method: as §2
# (§4) COS-1 cells were transiently transfected with HA-MEK and increasing amounts of RKIP expression vectors. Serum starved cells were stimulated with 100 ng/ml TPA for 20 minutes, and the kinase activities of Raf-1 and HA-MEK immunoprecipitates were measured.
# Raf-1-MEK complexes = molecular target: T3, Raf-1-MEK complexes (Homo sapiens, UniProt P04049); assay: Disruption of the Raf-1-MEK complex on glutathione Sepharose beads; type: binding; details: in vitro, purified RKIP
# T3 construct: made in house; host or cells: Sf-9 insect cells
# Method: In vitro binding assays contained 5 μg of GST-fusion protein immobilized on glutathione Sepharose beads and 0.5-5 μg purified recombinant protein in PBS supplemented with 10% bovine serum as nonspecific competitor. Sf-9 cell lysates were used as source of Raf proteins (Hafner et al., 1994, Mol. Cell. Biol. 14: 6696-6703). After incubation for 1 hour at 4° C. the samples were washed 4 times with PBS, resolved by SDS-PAGE and blotted. The blots were developed using ECL (Amersham).
# GST-MEK and Raf-1 were co-expressed in Sf-9 cells. The GST-MEK-Raf-1 complex was purified by adsorption to glutathione Sepharose beads, washed, and resuspended in PBS. Purified RKIP was added at the concentrations indicated. After 1 hour at 4° C., the GST-MEK beads were washed three times with PBS and examined for associated proteins by Western blotting (WB) with the indicated antisera.
# Raf-1 [6] = assay: Raf-1 immunoprecipitate kinase activity in transfected COS-1 cells; type: cell-based; details: co-transfection of RKIP
# Method: as §2, §4
# GST-Raf-1 = molecular target: T4, GST-Raf-1 (Homo sapiens, UniProt P04049); assay: Binding of purified RKIP to inactive and activated GST-Raf-1 beads; details: recombinant RKIP produced in E. coli
# T4 construct: made in house; host or cells: Sf-9 insect cells
# Method: Activated GST-Raf-1 was produced in Sf-9 insect cells co-infected with RasV12 and Lck, which results in a robust activation of the catalytic activity. GST-Raf-1 proteins were purified by adsorption to glutathione Sepharose beads and incubated with recombinant RKIP produced in E. coli. […] We also tested whether activation affected the binding of MEK and ERK to RKIP. Purified MEK and ERK were phosphorylated in vitro with recombinant Raf-1 or Raf-1 plus MEK, respectively, and incubated with GST or GST-RKIP beads. The binding reaction products were washed, separated on SDS gels, and immunoblotted with the appropriate antisera. […] However, since only small fractions of MEK and ERK become phosphorylated, we also carried out the phosphorylation in the presence of […] The blots were autoradiographed to detect phosphorylated MEK and ERK and were subsequently stained with the cognate antisera to visualize total protein bound. Under these conditions, binding of phosphorylated MEK and ERK to RKIP was evident.
# [7] = system: cell lines resistant to apoptosis; assay: Sensitivity to apoptotic stimuli on RKIP expression; type: cell-based; details: expression of RKIP; data not shown
# Raf-1 [8] = molecular target: T5, Raf-1 (Homo sapiens, UniProt P04049); assay: In vitro kinase assay of reconstituted Raf/MEK/ERK cascade: Raf-1; type: biochemical
# T5 construct: GST (cleaved yes); made in house; host or cells: Sf-9 insect cells
# Method: as §3
# [9] = purified RKIP, recombinant proteins in vitro
# [10] = microinjection of an RKIP expression vector
molecule,measurement,setting,value
"COc1cccc(-c2cc(=O)c3ccccc3o2)c1N [PD98059, reference compound]",suppression of AP-1 reporter induction caused by anti-RKIP antibodies,[1],suppressed
"N#CC(=C(/N)Sc1ccccc1N)/C(C#N)=C(\N)Sc1ccccc1N [U0126, reference compound]",suppression of AP-1 reporter induction caused by anti-RKIP antibodies,[1],suppressed
"RKIP: Raf kinase inhibitor protein; used as purified recombinant protein or expressed from vector p353/RKIP (protein, UniProt P30086 2-187, looked up) Phosphatidylethanolamine-bindi …: PVDLSKWSGPLSLQEVDEQPQHPLHVTYAGAAVDELGKVLTPTQVKNRPTSISWDGLDSGKLYTLVLTDPDAPSRKDPKYREWHHFLVVNMKGNDISSGTVLSDYVGSGPPKGTGLHRYVWLVYEQDRPLKCDEPILSNRSGDHRGKFKVASFRKKYELRAPVAGTCYQAEWDDYVPKLYEQLSGK",basal and BXB induced AP-1 activity,AP-1 activity,diminished
same,inhibition of MEK-DD or MEK activated by TPA treatment of cells,MEK [2]; immunoprecipitated from COS-1 cells,failed to inhibit
same,ERK phosphorylation by MEK,MEK [2]; [9],did not inhibit
same,ERK activation by MEK-DD,ERK [3]; RKIP co-transfection,did not affect
same,activation of ERKs by v-Ras or v-Src oncogenes,ERK [3]; RKIP overexpression,downregulated
same,BXB induced activation of ERK,"ERK [3]; increasing amounts of RKIP expression plasmid, dose dependent",inhibited
same,ELK phosphorylation by ERK,ERK [4],did not inhibit
same,MEK phosphorylation by MEKK-1,MEKK-1,did not prevent
same,induction of foci by v-fos or mutationally activated MEK alleles,NIH 3T3 and 208F cells; RKIP overexpression,only to a small extent
same,v-src transformation,NIH 3T3 and 208F cells; RKIP overexpression,failed to inhibit
same,total colony yield,NIH 3T3 and 208F cells; RKIP overexpression with BXB,decreased
same,transformation efficiency of BXB,"NIH 3T3 and 208F cells; RKIP overexpression, morphological transformation, focus formation, anchorage independent growth",significantly reduced
same,activation of MEK by TPA,MEK [5],strongly inhibited
same,physical interaction between Raf-1 and MEK,Raf-1-MEK complexes,disrupted
same,activation of Raf-1 by TPA,Raf-1 [6],only a small influence
same,RKIP binding to activated versus inactive GST-Raf-1,GST-Raf-1,Less RKIP bound
same,sensitivity to apoptotic stimuli,[7],rendered sensitive
same,AP-1 induction by TPA and BXB,[1]; [10],impaired
same,AP-1 stimulation by ERK-1,[1]; [10],did not interfere
same,mechanism of Raf-1 inhibition,"Raf-1 [8]; Lineweaver-Burk plot, GST-MEK-1 substrate",competitive inhibitor
same,Raf-1 autophosphorylation or phosphorylation of MBP by Raf-1,Raf-1 [8]; in vitro,did not interfere
same,phosphorylation of MEK by Raf-1,Raf-1 [8]; [9],decreased
